Experimental data as given in paper PMC6386705.

Tests used:
[1] = target: HuR RRM3 (residues 241 to 326) (human), Q15717; experiment: NMR 15N relaxation; conditions: remark: other sources report otherwise
[2] = target: HuR RRM3 (residues 241 to 326) (human), Q15717; experiment: ITC; conditions: remark: other sources report otherwise

B1: HuR RRM3 (residues 241 to 326), Q15717 241-326 (domain or fragment)
chain: SSGWCIFIYNLGQDADEGILWQMFGPFGAVTNVKVIRDFNTNKCKGFGFVTMTNYEEAAMAIASLNGYRLGDKILQVSFKTNKSHK
[1]
  stoichiometry N: 2
[2]
  Kd: 31.7 µM
